In patent US20090203035A1 (University of California, published 2009):

B1: mOrange2 (other)
chain: MVSKGEENNMAIIKEFMRFKVRMEGSVNGHEFEIEGEGEGRPYEGFQTAKLKVTKGGPLPFAWDILSPHFTYGSKAYVKHPADIPDYFKLSFPEGFKWERVMNYEDGGVVTVTQDSSLQDGEFIYKVKLRGTNFPSDGPVMQKKTMGWEASSERMYPEDGALKGKIKMRLKLKDGGHYTSEVKTTYKAKKPVQLPGAYIVDIKLDITSHNEDYTIVEQYERAEGRHSTGGMDELYK
notes: Engineered monomeric orange fluorescent protein derived from mOrange (DsRed lineage); also called mOrange Q64H/F99Y/E160K/G196D; not shown: N-terminal 6xHis tag and linker encoded by the pBAD expression vector
B2: TagRFP-T (other)
chain: MVSKGEELIKENMHMKLYMEGTVNNHHFKCTSEGEGKPYEGTQTMRIKVVEGGPLPFAFDILATSFMYGSRTFINHTQGIPDFFKQSFPEGFTWERVTTYEDGGVLTATQDTSLQDGCLIYNVKIRGVNFPSNGPVMQKKTLGWEANTEMLYPADGGLEGRTDMALKLVGGGHLICNFKTTYRSKKPAKNLKMPGVYYVDHRLERIKEADKETYVEQHEVAVARYCDLPSKLGHKLNGMDELYK
notes: Engineered fluorescent protein, the S158T variant of TagRFP (eqFP578 lineage); also called TagRFP S158T; not shown: N-terminal 6xHis tag and linker encoded by the pBAD expression vector

Biological target: the molecule itself
Test: gel filtration (self-association / dimerization check)

Protein	binding result
B1	no binding
B2	no binding
